From patent US4587340A, “Biopterin analogs” (Burroughs Wellcome Co., priority 1984, dated 1986) come the findings set out here.

Series [1] relates to COCC1CNc2nc(N)[nH]c(=O)c2N1. Briefly: Tyrosine hydroxylase cofactor assay. Type of series: biochemical.
Experimental: Tyrosine hydroxylase was partially purified through a 25-45% ammonium sulfate fraction. […] The enzyme was assayed by a modification of the method of Nagatsu, T., Levitt, M., and Udenfriend, S. (Anal. Biochem. 9, 122, (1964)) where the Dowex chromatography step was replaced by a charcoal extraction.
Series [2] deals with C[C@H](O)[C@H](O)[C@H]1CNc2nc(N)[nH]c(=O)c2N1. Briefly: purified protein, by the assay type.

Chain of Tyrosine hydroxylase (Homo sapiens) (chain, as listed by the source): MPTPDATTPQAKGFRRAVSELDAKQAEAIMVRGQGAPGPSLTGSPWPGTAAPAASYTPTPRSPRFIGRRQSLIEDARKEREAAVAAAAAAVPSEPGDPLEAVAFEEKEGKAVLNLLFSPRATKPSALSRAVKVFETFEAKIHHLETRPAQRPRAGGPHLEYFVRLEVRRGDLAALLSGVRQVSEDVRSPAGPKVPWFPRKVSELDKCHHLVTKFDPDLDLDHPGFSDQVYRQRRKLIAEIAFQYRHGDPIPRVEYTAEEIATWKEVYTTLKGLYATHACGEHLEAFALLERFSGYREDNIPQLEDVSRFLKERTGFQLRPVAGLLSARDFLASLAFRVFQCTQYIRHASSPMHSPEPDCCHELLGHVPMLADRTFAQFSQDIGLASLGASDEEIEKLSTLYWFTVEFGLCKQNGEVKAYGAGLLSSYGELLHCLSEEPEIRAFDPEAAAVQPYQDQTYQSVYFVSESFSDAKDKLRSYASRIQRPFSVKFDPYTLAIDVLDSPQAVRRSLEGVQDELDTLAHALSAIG

Usually Km stands for the substrate concentration at which the rate is half of its maximum. Take Tyrosine hydroxylase (Homo sapiens): the Km in series [1] is 65 µM; in series [2], 110 µM.
